From article PMC3810412 come the findings set out here.

The assay deals with T1, delta opioid receptor (Homo sapiens), P41143.
T1 chain: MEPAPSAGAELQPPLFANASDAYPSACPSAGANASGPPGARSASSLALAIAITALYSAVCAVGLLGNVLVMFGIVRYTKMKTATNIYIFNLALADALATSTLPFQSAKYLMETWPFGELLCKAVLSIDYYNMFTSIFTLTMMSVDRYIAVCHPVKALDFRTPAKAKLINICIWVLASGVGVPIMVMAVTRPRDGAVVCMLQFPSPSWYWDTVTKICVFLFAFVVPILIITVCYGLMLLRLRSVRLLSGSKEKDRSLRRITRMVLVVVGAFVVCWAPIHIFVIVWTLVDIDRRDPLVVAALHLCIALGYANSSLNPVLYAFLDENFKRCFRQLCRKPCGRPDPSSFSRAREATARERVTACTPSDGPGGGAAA
The experiment in a line: radioligand competition. The conditions noted are these: modification not given. (Displacement assays read how much labelled ligand stays bound in the presence of the test substance.)

B1: ligand 8 (peptide)
chain: YAGFLW
As usually defined, the Ki is a dissociation constant, usually derived from enzyme kinetics or from competition with a known ligand. B1 showed a Ki of 0.6 nM.

B2: ligand 7 (peptide)
chain: YAGFMW
For B2, the Ki was determined as 2.9 nM.

B3: ligand 2 (peptide)
chain: YAGFMALW
B3 gave a Ki of 25 nM.

B4: ligand 5 (peptide)
chain: YAGFMPLW
Turning to B4, the Ki stood at 13 nM.
